T1: soluble human FcRH5 protein fragment (human) (UniProt Q96RD9)
T1 sequence: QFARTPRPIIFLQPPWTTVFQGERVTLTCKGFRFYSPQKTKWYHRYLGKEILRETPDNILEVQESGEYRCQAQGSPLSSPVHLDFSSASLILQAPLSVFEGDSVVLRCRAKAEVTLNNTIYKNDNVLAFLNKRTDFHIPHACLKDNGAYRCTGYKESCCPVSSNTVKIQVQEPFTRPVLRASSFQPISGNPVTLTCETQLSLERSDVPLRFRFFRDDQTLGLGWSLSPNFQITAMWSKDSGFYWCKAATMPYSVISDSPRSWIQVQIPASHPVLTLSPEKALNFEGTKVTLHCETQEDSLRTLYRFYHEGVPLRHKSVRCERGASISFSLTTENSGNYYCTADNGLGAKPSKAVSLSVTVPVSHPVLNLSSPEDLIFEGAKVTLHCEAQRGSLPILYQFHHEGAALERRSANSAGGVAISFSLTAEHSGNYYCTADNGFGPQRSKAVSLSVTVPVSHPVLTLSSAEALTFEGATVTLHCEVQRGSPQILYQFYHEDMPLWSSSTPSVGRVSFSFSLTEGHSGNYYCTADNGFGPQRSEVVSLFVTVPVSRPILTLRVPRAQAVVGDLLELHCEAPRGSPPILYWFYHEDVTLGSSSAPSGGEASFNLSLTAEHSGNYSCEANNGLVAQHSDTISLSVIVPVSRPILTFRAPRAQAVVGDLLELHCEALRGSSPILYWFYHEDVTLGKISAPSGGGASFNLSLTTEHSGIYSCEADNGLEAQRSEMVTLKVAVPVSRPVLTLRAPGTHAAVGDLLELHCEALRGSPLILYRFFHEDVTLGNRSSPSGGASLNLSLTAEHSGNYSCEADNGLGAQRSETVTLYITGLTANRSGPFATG

T2: soluble cynomolgus FcRH5 protein fragment (cynomolgus monkey)
T2 sequence: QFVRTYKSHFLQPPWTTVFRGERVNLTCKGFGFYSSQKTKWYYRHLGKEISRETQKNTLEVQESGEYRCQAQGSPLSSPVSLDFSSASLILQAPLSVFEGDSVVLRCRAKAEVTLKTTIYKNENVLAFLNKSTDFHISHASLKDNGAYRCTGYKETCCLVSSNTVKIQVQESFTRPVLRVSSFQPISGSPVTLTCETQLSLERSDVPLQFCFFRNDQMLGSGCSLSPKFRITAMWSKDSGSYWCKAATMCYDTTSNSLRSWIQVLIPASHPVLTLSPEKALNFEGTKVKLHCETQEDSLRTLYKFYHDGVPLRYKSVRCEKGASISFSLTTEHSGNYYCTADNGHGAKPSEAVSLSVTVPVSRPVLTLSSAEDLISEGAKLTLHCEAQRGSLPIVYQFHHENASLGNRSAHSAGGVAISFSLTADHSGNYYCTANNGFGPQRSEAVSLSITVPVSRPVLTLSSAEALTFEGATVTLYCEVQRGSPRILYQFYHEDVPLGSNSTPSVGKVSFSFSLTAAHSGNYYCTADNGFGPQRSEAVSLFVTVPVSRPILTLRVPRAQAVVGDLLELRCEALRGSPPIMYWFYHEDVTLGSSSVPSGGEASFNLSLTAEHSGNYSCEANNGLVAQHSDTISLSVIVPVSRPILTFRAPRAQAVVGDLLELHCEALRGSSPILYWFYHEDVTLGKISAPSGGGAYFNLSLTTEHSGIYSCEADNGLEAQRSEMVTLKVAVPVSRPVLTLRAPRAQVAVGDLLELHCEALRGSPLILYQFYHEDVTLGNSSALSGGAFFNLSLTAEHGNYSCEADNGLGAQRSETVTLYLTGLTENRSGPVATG


Assays:
[1] = target: T1, soluble human FcRH5 protein fragment (human); experiment: SPR screening, human IgG capture
[2] = target: T2, soluble cynomolgus FcRH5 protein fragment (cynomolgus monkey); experiment: BIACORE
[3] = target: T2, soluble cynomolgus FcRH5 protein fragment (cynomolgus monkey); experiment: SPR, human IgG capture, 1:1 model
[4] = target: T2, soluble cynomolgus FcRH5 protein fragment (cynomolgus monkey); experiment: BIACORE, hIgG capture, 1:1 model, monovalent

Kd [1]	further results	Binder
81 nM	–	hu1G7.v1 heavy chain W52F + light chain of hu1G7.v1.6 (antibody, part only; not given: hu1G7.v1.6 light chain, V domains shown, part only) VH: EVQLVESGPGLVKPSETLSLTCTVSGFSLTRFGVHWVRQPPGKGLEWLGVIFRGGSTDYNAAFMSRLTISKDNSKNQVSLKLSSVTAADTAVYYCSNHYYGSSDYALDNWGQGTLVTVSS
–	Kd [2]: 8.1 nM	hu1G7.v93/38E4.v1 TDB (bispecific antibody, V domains shown) VH 1: EVQLVESGPGLVKPSETLSLTCTVSGFSTTRFGVHWVRQPPGKGLEWLGVIWRGGSTDYNAAFVSRLTISKDNSKNQVSLKLSSVTAADTAVYYCSNHYYGSPDYALDNWGQGTLVTVSS VL 1: DIQMTQSPSSLSASVGDRVTITCKASQDVSNLVVWFQQKPGKAPKLLIYSGSYRYSGVPSRFSGSGSGTDFTLTISSLQPEDFATYYCQQHYSPPYTFGQGTKVEIK VH 2: EVQLVQSGAEVKKPGASVKVSCKASGFTFTSYYIHWVRQAPGQGLEWIGWIYPENDNTKYNEKFKDRVTITADTSTSTAYLELSSLRSEDTAVYYCARDGYSRYYFDYWGQGTLVTVSS VL 2: DIVMTQSPDSLAVSLGERATINCKSSQSLLNSRTRKNYLAWYQQKPGQSPKLLIYWTSTRKSGVPDRFSGSGSGTDFTLTISSLQAEDVAVYYCKQSFILRTFGQGTKVEIK
–	Kd [2]: 7.8 nM; Kd [3]: 6.8 nM; koff [3]: 0.0008 s⁻¹; kon [3]: 100000 M⁻¹ s⁻¹; Kd [4]: 6.76 nM	hu1G7.v85/38E4.v1 TDB (bispecific antibody, V domains shown) VH 1: EVQLVESGPGLVKPSETLSLTCTVSGFSLTRFGVHWVRQPPGKGLEWLGVIWRGGSTDYNAAFVSRLTISKDNSKNQVSLKLSSVTAADTAVYYCSNHYYGSSDYALDNWGQGTLVTVSS VL 1: DIQMTQSPSSLSASVGDRVTITCKASQDVRNLVVWFQQKPGKAPKLLIYSGSYRYSGVPSRFSGSGSGTDFTLTISSLQPEDFATYYCQQHYSPPYTFGQGTKVEIK VH 2: EVQLVQSGAEVKKPGASVKVSCKASGFTFTSYYIHWVRQAPGQGLEWIGWIYPENDNTKYNEKFKDRVTITADTSTSTAYLELSSLRSEDTAVYYCARDGYSRYYFDYWGQGTLVTVSS VL 2: DIVMTQSPDSLAVSLGERATINCKSSQSLLNSRTRKNYLAWYQQKPGQSPKLLIYWTSTRKSGVPDRFSGSGSGTDFTLTISSLQAEDVAVYYCKQSFILRTFGQGTKVEIK
2.6 nM	–	hu1G7.v1 heavy chain M64F + light chain of hu1G7.v1.6 (antibody, part only; not given: hu1G7.v1.6 light chain, V domains shown, part only) VH: EVQLVESGPGLVKPSETLSLTCTVSGFSLTRFGVHWVRQPPGKGLEWLGVIWRGGSTDYNAAFFSRLTISKDNSKNQVSLKLSSVTAADTAVYYCSNHYYGSSDYALDNWGQGTLVTVSS
110 nM	–	hu1G7.v1 heavy chain W52H + light chain of hu1G7.v1.6 (antibody, part only; not given: hu1G7.v1.6 light chain, V domains shown, part only) VH: EVQLVESGPGLVKPSETLSLTCTVSGFSLTRFGVHWVRQPPGKGLEWLGVIHRGGSTDYNAAFMSRLTISKDNSKNQVSLKLSSVTAADTAVYYCSNHYYGSSDYALDNWGQGTLVTVSS
530 nM	–	hu1G7.v1 heavy chain W52Y + light chain of hu1G7.v1.6 (antibody, part only; not given: hu1G7.v1.6 light chain, V domains shown, part only) VH: EVQLVESGPGLVKPSETLSLTCTVSGFSLTRFGVHWVRQPPGKGLEWLGVIYRGGSTDYNAAFMSRLTISKDNSKNQVSLKLSSVTAADTAVYYCSNHYYGSSDYALDNWGQGTLVTVSS
2.7 nM	–	hu1G7.v1 heavy chain M64V + light chain of hu1G7.v1.6 (antibody, part only; not given: hu1G7.v1.6 light chain, V domains shown, part only) VH: EVQLVESGPGLVKPSETLSLTCTVSGFSLTRFGVHWVRQPPGKGLEWLGVIWRGGSTDYNAAFVSRLTISKDNSKNQVSLKLSSVTAADTAVYYCSNHYYGSSDYALDNWGQGTLVTVSS
2.7 nM	–	hu1G7.v1 heavy chain M64I + light chain of hu1G7.v1.6 (antibody, part only; not given: hu1G7.v1.6 light chain, V domains shown, part only) VH: EVQLVESGPGLVKPSETLSLTCTVSGFSLTRFGVHWVRQPPGKGLEWLGVIWRGGSTDYNAAFISRLTISKDNSKNQVSLKLSSVTAADTAVYYCSNHYYGSSDYALDNWGQGTLVTVSS
250 nM	–	hu1G7.v1 heavy chain W52L + light chain of hu1G7.v1.6 (antibody, part only; not given: hu1G7.v1.6 light chain, V domains shown, part only) VH: EVQLVESGPGLVKPSETLSLTCTVSGFSLTRFGVHWVRQPPGKGLEWLGVILRGGSTDYNAAFMSRLTISKDNSKNQVSLKLSSVTAADTAVYYCSNHYYGSSDYALDNWGQGTLVTVSS

Reference: patent US20160368985A1
